Laboratory results reported in patent US20140162950A1.

Molecular target: integrin α3β1 on gastric cancer cells (MKN45, MKN45/CTGF, AGS) (human) (UniProt P26006)
Experiment: cell-based or functional assay

Sequence of UniProt P26006 (P26006 33-1051, chain 1 of 2): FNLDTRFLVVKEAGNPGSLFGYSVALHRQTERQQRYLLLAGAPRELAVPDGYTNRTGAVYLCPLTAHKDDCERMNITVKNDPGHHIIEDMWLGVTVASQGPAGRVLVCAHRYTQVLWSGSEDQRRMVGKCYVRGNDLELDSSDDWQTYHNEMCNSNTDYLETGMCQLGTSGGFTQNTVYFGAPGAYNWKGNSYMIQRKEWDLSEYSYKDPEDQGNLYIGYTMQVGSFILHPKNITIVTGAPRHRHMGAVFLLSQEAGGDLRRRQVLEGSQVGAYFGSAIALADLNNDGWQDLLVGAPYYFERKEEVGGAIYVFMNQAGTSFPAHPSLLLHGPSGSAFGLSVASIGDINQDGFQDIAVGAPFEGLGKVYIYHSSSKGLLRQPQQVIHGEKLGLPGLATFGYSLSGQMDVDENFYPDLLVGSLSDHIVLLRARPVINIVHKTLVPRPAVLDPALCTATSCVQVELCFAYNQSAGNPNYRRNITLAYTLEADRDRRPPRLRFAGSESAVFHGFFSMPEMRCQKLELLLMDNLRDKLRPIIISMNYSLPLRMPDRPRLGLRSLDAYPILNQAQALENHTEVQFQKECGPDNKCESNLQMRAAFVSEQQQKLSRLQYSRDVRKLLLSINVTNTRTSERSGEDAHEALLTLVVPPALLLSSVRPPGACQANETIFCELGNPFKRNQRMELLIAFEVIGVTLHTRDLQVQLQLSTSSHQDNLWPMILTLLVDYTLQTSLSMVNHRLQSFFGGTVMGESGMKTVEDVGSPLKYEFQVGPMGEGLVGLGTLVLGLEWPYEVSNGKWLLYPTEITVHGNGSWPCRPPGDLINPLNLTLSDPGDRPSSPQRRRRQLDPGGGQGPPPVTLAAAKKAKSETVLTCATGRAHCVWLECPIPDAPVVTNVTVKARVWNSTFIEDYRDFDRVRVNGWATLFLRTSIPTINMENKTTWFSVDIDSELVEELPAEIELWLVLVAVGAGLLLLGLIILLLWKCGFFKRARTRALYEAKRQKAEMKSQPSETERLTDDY
Sequence of UniProt P26006 (P05556 21-798, chain 2 of 2, further chain): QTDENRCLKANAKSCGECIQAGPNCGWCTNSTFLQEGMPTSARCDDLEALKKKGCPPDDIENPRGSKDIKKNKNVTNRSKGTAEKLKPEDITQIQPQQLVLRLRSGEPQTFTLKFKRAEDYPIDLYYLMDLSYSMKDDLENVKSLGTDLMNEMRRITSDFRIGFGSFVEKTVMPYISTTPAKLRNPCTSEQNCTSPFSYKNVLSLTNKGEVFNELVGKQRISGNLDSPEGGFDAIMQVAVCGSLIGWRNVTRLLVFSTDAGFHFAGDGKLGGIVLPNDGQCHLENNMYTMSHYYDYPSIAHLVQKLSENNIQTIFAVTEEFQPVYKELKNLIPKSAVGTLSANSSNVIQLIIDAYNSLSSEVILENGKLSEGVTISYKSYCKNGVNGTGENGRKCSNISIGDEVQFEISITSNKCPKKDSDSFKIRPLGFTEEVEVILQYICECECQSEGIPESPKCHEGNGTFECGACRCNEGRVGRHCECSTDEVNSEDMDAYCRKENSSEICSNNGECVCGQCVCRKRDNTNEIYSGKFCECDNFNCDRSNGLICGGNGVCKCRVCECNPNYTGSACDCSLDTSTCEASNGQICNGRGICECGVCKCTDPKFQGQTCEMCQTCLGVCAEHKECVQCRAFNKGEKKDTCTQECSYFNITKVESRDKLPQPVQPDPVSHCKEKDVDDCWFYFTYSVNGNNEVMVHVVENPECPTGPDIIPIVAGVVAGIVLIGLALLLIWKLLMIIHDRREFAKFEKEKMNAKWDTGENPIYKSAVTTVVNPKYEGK

- adhesion inhibition (MKN45 cells, matrigel adhesion assay, 6 hours post treatment, 50 ng rCTGF): 50%
- adhesion inhibition (MKN45 cells, matrigel adhesion assay, 6 hours post treatment, 100 ng rCTGF): 70%
- adhesion inhibition (MKN45 cells, matrigel adhesion assay, 6 hours post treatment, 200 ng rCTGF): 75%
Substance: recombinant CTGF C terminal (CT) domain (from UniProt P29279 253-349) (ligand)
